This note sets out measurements from article PMC6262109.

What all share (assay): EMSA
Background: In EMSA bound probe runs differently from free probe, usually more slowly.

The target of data set [1] is T1, FLAG-Dmp1 (Dmp1alpha);p53 (mouse?;, UniProt Q8CE22;P04637 1-761;1-393, |).
Data set [2] addresses T1, FLAG-Dmp1 (Dmp1alpha);p53. The source holds these as a separate data set.
The target in a further data set is p53 (UniProt P04637 1-393).
A further data set concerns the target T2, FLAG-Dmp1 (Dmp1alpha) (UniProt Q8CE22 1-761).
T2 sequence: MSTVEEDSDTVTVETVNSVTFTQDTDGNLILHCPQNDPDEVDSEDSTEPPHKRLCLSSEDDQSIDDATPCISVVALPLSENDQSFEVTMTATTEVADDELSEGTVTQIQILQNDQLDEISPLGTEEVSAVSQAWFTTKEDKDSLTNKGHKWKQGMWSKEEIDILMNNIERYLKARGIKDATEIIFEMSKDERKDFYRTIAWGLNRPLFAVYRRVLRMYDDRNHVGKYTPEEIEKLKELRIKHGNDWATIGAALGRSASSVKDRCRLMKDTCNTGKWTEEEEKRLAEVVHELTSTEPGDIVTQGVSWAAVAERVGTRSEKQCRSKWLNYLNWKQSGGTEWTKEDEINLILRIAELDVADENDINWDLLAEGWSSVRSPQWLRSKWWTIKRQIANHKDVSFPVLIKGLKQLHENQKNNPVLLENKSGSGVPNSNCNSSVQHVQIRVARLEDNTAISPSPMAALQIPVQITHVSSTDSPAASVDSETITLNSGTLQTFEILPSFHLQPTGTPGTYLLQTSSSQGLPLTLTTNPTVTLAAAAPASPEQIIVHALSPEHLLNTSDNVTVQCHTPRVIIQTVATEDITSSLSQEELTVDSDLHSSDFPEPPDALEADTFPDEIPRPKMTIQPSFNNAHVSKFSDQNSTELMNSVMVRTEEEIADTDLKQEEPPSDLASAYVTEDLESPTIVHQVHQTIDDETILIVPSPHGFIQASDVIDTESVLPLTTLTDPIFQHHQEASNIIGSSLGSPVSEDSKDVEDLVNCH

Like-named read-outs stand apart in the source and are kept apart here.

B1: p53-g general p53 consensus (dsDNA)
DNA 1: AGGCATGCCTAGGCATGCCT
DNA 2: AGGCATGCCTAGGCATGCCT
Turning to B1, the binding signal in data set [1] was 6 fold vs p53 alone.

B2: mouse p21Cip1 p53 consensus #2 (dsDNA)
DNA 1: AGACTGGGCATGTCTGGGCA
DNA 2: TGCCCAGACATGCCCAGTCT
In data set [2], B2 showed a binding signal of 3 fold vs p53+BSA. In addition, the binding result with p53 was “binds”.

B3: mouse Arf promoter Dmp1 site (dsDNA)
DNA 1: TACCTCGTGGGGCGGATGCACAGAAGCAC
DNA 2: GTGCTTCTGTGCATCCGCCCCACGAGGTA
In the case of B3, the binding result in the data set with FLAG-Dmp1 (Dmp1alpha) is listed as “binds”.
